B1: SMG5 (parent)
chain: FVSIAQSEQESLLQQAQAQFRMAQ
B2: LOXL2 (parent)
chain: HISSCKLGPQVSLDPMKNVTCENG
B3: APBB1IP (parent)
chain: LPLPPPPPEPLSQVSMWDQRWQDH

Protein stability index data for 94 variants are collected here from the supplement of paper PMC10567573.
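Also: lentivirally expressed fusions sorted by FACS into six bins by GFP to DsRed ratio, PSI derived from sequencing read proportions per bin multiplied by bin number.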

Variants of B1 are the subject of the first data set. As to the kind of experiment: protein stability index of a GFP-peptide fusion (GPS, HEK-293T) (PSI 1-6); higher = more stable. Conditions: c terminus: a fixed tail appended.
As to FVSAAQSEQESLLQQAQAQFRMAQ, the protein stability index turned out to be 2.38.

Turning to FTSIAQSEQESLLQQAQAQFRMAQ, the protein stability index was found to be 3.35.

For FYSIAQSEQESLLQQAQAQFRMAQ, the protein stability index was 2.69.

Regarding FPSIAQSEQESLLQQAQAQFRMAQ, the protein stability index is 3.8.

For the variant FHSIAQSEQESLLQQAQAQFRMAQ, the protein stability index turned out to be 2.43.

FQSIAQSEQESLLQQAQAQFRMAQ: the protein stability index is 2.9.

Consider FRSIAQSEQESLLQQAQAQFRMAQ, for which the protein stability index was determined as 3.45.

Take FDSIAQSEQESLLQQAQAQFRMAQ: the protein stability index was determined as 3.77.

With FFSIAQSEQESLLQQAQAQFRMAQ, the protein stability index turned out to be 2.22.

For FISIAQSEQESLLQQAQAQFRMAQ, the protein stability index was 2.59.

Consider FNSIAQSEQESLLQQAQAQFRMAQ, for which the protein stability index was found to be 4.14.

Consider FWSIAQSEQESLLQQAQAQFRMAQ, for which the protein stability index stood at 2.98.

Consider FCSIAQSEQESLLQQAQAQFRMAQ, for which the protein stability index was found to be 2.82.

As for FMSIAQSEQESLLQQAQAQFRMAQ, the protein stability index is 2.9.

For the variant FLSIAQSEQESLLQQAQAQFRMAQ, the protein stability index came out at 2.99.

For the variant FASIAQSEQESLLQQAQAQFRMAQ, the protein stability index worked out at 3.24.

For FGSIAQSEQESLLQQAQAQFRMAQ, the protein stability index is 3.65.

As for FSSIAQSEQESLLQQAQAQFRMAQ, the protein stability index turned out to be 3.45.

Turning to FKSIAQSEQESLLQQAQAQFRMAQ, the protein stability index amounted to 3.12.

For the variant FESIAQSEQESLLQQAQAQFRMAQ, the protein stability index is 3.69.

FVAIAQSEQESLLQQAQAQFRMAQ: the protein stability index amounted to 1.99.

For the variant FVVIAQSEQESLLQQAQAQFRMAQ, the protein stability index is 1.77.

Turning to FVRIAQSEQESLLQQAQAQFRMAQ, the protein stability index is 2.31.

On to FVTIAQSEQESLLQQAQAQFRMAQ, for which the protein stability index turned out to be 2.25.

As to FVIIAQSEQESLLQQAQAQFRMAQ, the protein stability index came out at 1.61.

In the case of FVWIAQSEQESLLQQAQAQFRMAQ, the protein stability index amounted to 2.89.

As for FVEIAQSEQESLLQQAQAQFRMAQ, the protein stability index worked out at 2.61.

Regarding FVMIAQSEQESLLQQAQAQFRMAQ, the protein stability index stood at 1.6.

As for FVPIAQSEQESLLQQAQAQFRMAQ, the protein stability index came to 2.22.

In the case of FVGIAQSEQESLLQQAQAQFRMAQ, the protein stability index was 2.13.

FVLIAQSEQESLLQQAQAQFRMAQ: the protein stability index is 1.87.

Regarding FVDIAQSEQESLLQQAQAQFRMAQ, the protein stability index stood at 2.22.

For the variant FVCIAQSEQESLLQQAQAQFRMAQ, the protein stability index was 1.66.

As for FVNIAQSEQESLLQQAQAQFRMAQ, the protein stability index was found to be 1.83.

Regarding FVHIAQSEQESLLQQAQAQFRMAQ, the protein stability index turned out to be 1.74.

As to FVQIAQSEQESLLQQAQAQFRMAQ, the protein stability index was found to be 2.62.

In the case of FVKIAQSEQESLLQQAQAQFRMAQ, the protein stability index stood at 2.28.

As to FVYIAQSEQESLLQQAQAQFRMAQ, the protein stability index worked out at 1.58.

In the case of FVFIAQSEQESLLQQAQAQFRMAQ, the protein stability index was determined as 1.87.

With NVSIAQSEQESLLQQAQAQFRMAQ, the protein stability index turned out to be 3.93.

Regarding GVSIAQSEQESLLQQAQAQFRMAQ, the protein stability index amounted to 4.01.

Regarding CVSIAQSEQESLLQQAQAQFRMAQ, the protein stability index amounted to 2.75.

On to RVSIAQSEQESLLQQAQAQFRMAQ, for which the protein stability index was determined as 3.42.

Turning to WVSIAQSEQESLLQQAQAQFRMAQ, the protein stability index turned out to be 2.65.

For the variant DVSIAQSEQESLLQQAQAQFRMAQ, the protein stability index came out at 4.28.

Regarding PVSIAQSEQESLLQQAQAQFRMAQ, the protein stability index came to 3.77.

For the variant HVSIAQSEQESLLQQAQAQFRMAQ, the protein stability index was 3.9.

On to TVSIAQSEQESLLQQAQAQFRMAQ, for which the protein stability index stood at 4.04.

Consider LVSIAQSEQESLLQQAQAQFRMAQ, for which the protein stability index came out at 3.3.

As for YVSIAQSEQESLLQQAQAQFRMAQ, the protein stability index amounted to 2.51.

On to IVSIAQSEQESLLQQAQAQFRMAQ, for which the protein stability index was determined as 2.96.

As to AVSIAQSEQESLLQQAQAQFRMAQ, the protein stability index stood at 4.58.

Consider EVSIAQSEQESLLQQAQAQFRMAQ, for which the protein stability index amounted to 4.16.

For the variant MVSIAQSEQESLLQQAQAQFRMAQ, the protein stability index was 2.97.

Take KVSIAQSEQESLLQQAQAQFRMAQ: the protein stability index stood at 3.77.

SVSIAQSEQESLLQQAQAQFRMAQ: the protein stability index came out at 3.41.

For VVSIAQSEQESLLQQAQAQFRMAQ, the protein stability index was 3.88.

For QVSIAQSEQESLLQQAQAQFRMAQ, the protein stability index is 3.7.

Variants of B2 are the subject of a further data set. The description is as above. The note with it: c terminus: a fixed tail appended.
HISSCKLGPQVSLDPMKNVTCENV: the protein stability index was determined as 3.67.

Regarding HISSCKLGPQVSLDPMKNVTCENR, the protein stability index worked out at 3.58.

Turning to HISSCKLGPQVSLDPMKNVTCENL, the protein stability index turned out to be 3.45.

For HISSCKLGPQVSLDPMKNVTCENF, the protein stability index worked out at 3.34.

For the variant HISSCKLGPQVSLDPMKNVTCENM, the protein stability index came out at 3.52.

On to HISSCKLGPQVSLDPMKNVTCENI, for which the protein stability index came out at 3.39.

Turning to HISSCKLGPQVSLDPMKNVTCENW, the protein stability index is 2.93.

With HISSCKLGPQVSLDPMKNVTCENN, the protein stability index came to 4.12.

Consider HISSCKLGPQVSLDPMKNVTCENE, for which the protein stability index was 4.47.

As for HISSCKLGPQVSLDPMKNVTCENP, the protein stability index was 3.79.

As for HISSCKLGPQVSLDPMKNVTCENH, the protein stability index came to 3.94.

For HISSCKLGPQVSLDPMKNVTCENC, the protein stability index stood at 3.37.

HISSCKLGPQVSLDPMKNVTCENQ: the protein stability index came out at 4.

Turning to HISSCKLGPQVSLDPMKNVTCENA, the protein stability index amounted to 3.65.

In the case of HISSCKLGPQVSLDPMKNVTCENT, the protein stability index worked out at 4.05.

Consider HISSCKLGPQVSLDPMKNVTCEND, for which the protein stability index is 4.01.

Consider HISSCKLGPQVSLDPMKNVTCENY, for which the protein stability index is 3.29.

In the case of HISSCKLGPQVSLDPMKNVTCENK, the protein stability index was determined as 3.82.

In the case of HISSCKLGPQVSLDPMKNVTCENS, the protein stability index amounted to 4.25.

As to HISSCKLGPQVSLDPMKNVTCEYG, the protein stability index came to 3.35.

For HISSCKLGPQVSLDPMKNVTCELG, the protein stability index worked out at 3.1.

For HISSCKLGPQVSLDPMKNVTCEKG, the protein stability index amounted to 3.98.

Take HISSCKLGPQVSLDPMKNVTCEWG: the protein stability index was determined as 2.21.

As for HISSCKLGPQVSLDPMKNVTCEPG, the protein stability index was determined as 3.63.

As to HISSCKLGPQVSLDPMKNVTCEMG, the protein stability index was determined as 3.26.

For HISSCKLGPQVSLDPMKNVTCERG, the protein stability index is 3.58.

Consider HISSCKLGPQVSLDPMKNVTCETG, for which the protein stability index came out at 3.77.

Take HISSCKLGPQVSLDPMKNVTCEIG: the protein stability index stood at 2.9.

For the variant HISSCKLGPQVSLDPMKNVTCESG, the protein stability index was determined as 3.91.

HISSCKLGPQVSLDPMKNVTCEVG: the protein stability index amounted to 3.53.

For HISSCKLGPQVSLDPMKNVTCEQG, the protein stability index came to 4.08.

The next data set covers variants of B3. Described as above. The note with it: c terminus: a fixed tail appended.
For LPLPPPKPEPLSQVSMWDQRWQDH, the protein stability index stood at 3.97.

As for LPLPPPEPEPLSQVSMWDQRWQDH, the protein stability index worked out at 4.25.

On to LPLPWPPPEPLSQVSMWDQRWQDH, for which the protein stability index is 3.4.

With LPLPMPPPEPLSQVSMWDQRWQDH, the protein stability index was 3.84.

On to LPLPKPPPEPLSQVSMWDQRWQDH, for which the protein stability index came to 3.28.
